Data on five molecules can be found in publication PMC8324831 (2021).

The target in assay [1] is T1, SARS-CoV-2 S-RBD with Avi-tag and deca-His tag (residues 330-531) (SARS-CoV-2, UniProt P0DTC2 330-531). The experiment in a line: BLI.
Assay [2] addresses T1, SARS-CoV-2 S-RBD with Avi-tag and …. The experiment in a line: BLI. This is another data set of the same source.

B1: sybody LR1 (VHH)
VHH: QVQLVESGGGSVQAGGSLRLSCAASGSISSITYLGWFRQAPGKEREGVAALITDSGRTYYADSVKGRFTVSLDNAKNTVYLQMNSLKPEDTALYYCAAAEWGYEWPLYYASSWYWGQGTQVTVS
For the molecule B1, in assay [1], the Kd was found to be 47.5 nM. This molecule also had a koff in assay [2] of 0.0096 s⁻¹.

B2: sybody LR5 (VHH)
VHH: QVQLVESGGGSVQAGGSLRLSCAASGSISSITYLGWFRQAPGKEREGVAALITSNGRTYYADSVKGRFTVSLDNAKNTVYLQMNSLKPEDTALYYCAAATWGYHWPLGAWDYWYWGQGTQVTVS
Turning to B2, in assay [1], binding was put at a Kd of 22.8 nM. This molecule returned a dissociation rate constant (koff) in assay [2] of 0.0032 s⁻¹.

B3: sybody SR4 (VHH)
VHH: QVQLVESGGGLVQAGGSLRLSCAASGFPVYSWNMWWYRQAPGKEREWVAAIESHGDSTRYADSVKGRFTISRDNAKNTVYLQMNSLKPEDTAVYYCYVWVGHTYYGQGTQVTVS
modifications: biotin by an amine-reactive crosslinker (only where immobilised on the SA sensor)
The molecule B3 registered a Kd in assay [1] of 14.5 nM. The koff in assay [2] amounted to 0.0014 s⁻¹.

B4: sybody MR17 (VHH)
VHH: QVQLVESGGGLVQAGGSLRLSCAASGFPVEVWRMEWYRQAPGKEREGVAAIESYGHGTRYADSVKGRFTISRDNAKNTVYLQMNSLKPEDTAVYYCNVKDDGQLAYHYDYWGQGTQVTVS
modifications: biotin by an amine-reactive crosslinker (only where immobilised on the SA sensor)
Consider B4, for which, in assay [2], the koff is 0.0097 s⁻¹.

B5: sybody MR4 (VHH)
VHH: QVQLVESGGGLVQAGGSLRLSCAASGFPMYAWEMAWYRQAPGKEREWVAAIRSMGVHTHYSDSVKGRFTISRDNAKNTVYLQMNSLKPEDTAVYYCNVKDFGGHQAYYDYWGQGTQVTVS
As to B5, in assay [1], binding was characterised by a dissociation constant (Kd) of 23.3 nM. Moreover, the koff in assay [2] came out at 0.0064 s⁻¹.
